# Experimental data from patent US9402900B2, “Methods of modulating adrenomedullin by administering an anti-adrenomedullin (ADM) antibody” (ADRENOMED AG, priority 2011, dated 2016).
# Assays:
# [1] = target: T1, Human ADM 1-52 bioactivity at human recombinant adrenomedullin receptor (CRLR+RAMP3) in CHO-K1 cells (Homo sapiens, UniProt P35318); test: Human recombinant Adrenomedullin receptor cAMP functional assay (Adrenomedullin Bioassay), human ADM as agonist; format: cell-based; conditions: in the presence of 5.63 nM Human ADM 1-52; antibody up to 100 μg/ml
# T1 construct: comprises the amino acids 95 to 146 of pre-proADM; FAST-027C (receptor cell line); host or cells: CHO-K1 cells transfected with human CRLR+RAMP3
# T1 sequence (P35318 95-146): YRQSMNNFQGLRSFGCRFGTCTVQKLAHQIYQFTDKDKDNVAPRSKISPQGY
# Protocol: The effect of selected ADM-antibodies on ADM-bioactivity was tested in an human recombinant Adrenomedullin receptor cAMP functional assay (Adrenomedullin Bioassay).
# Testing of Antibodies Targeting Human or Mouse Adrenomedullin in Human Recombinant Adrenomedullin Receptor cAMP Functional Assay (Adrenomedullin Bioassay)
# Receptor: Adrenomedullin (CRLR+RAMP3)
# Receptor Accession Number Cell line: CRLR: U17473; RAMP3: AJ001016
# Dose response curves were performed in parallel with the reference agonists (hADM or mADM).
# For antagonist testing, 6 μl of the reference agonist (human (5.63 nM) or mouse (0.67 nM) adrenomedullin) was mixed with 6 μl of the test samples at different antagonist dilutions; or with 6 μl buffer. After incubation for 60 min at room temperature, 12 μl of cells (2,500 cells/well) were added. The plates were incubated for 30 min at room temperature.
# The anti-h-ADM antibodies (NT-H, MR-H, CT-H) were tested for antagonist activity in human recombinant adrenomedullin receptor (FAST-027C) cAMP functional assay in the presence of 5.63 nM Human ADM 1-52, at the following final antibody concentrations: 100 μg/ml, 20 μg/ml, 4 μg/ml, 0.8 μg/ml, 0.16 μg/ml.
# hADM = target: T2, hADM (Homo sapiens, UniProt P35318); test: hADM sandwich luminescence immunoassay, dose/signal curve in presence of antibody; conditions: 100 μg/mL antibody
# T2 construct: comprises the amino acids 95 to 146 of pre-proADM; purchased BACHEM AG, Switzerland
# T2 sequence (P35318 95-146): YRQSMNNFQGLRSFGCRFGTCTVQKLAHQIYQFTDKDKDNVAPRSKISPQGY
# Protocol: The assay was calibrated, using dilutions of hADM
# Unbound tracer was removed by washing 5 times (each 1 ml) with washing solution (20 mM PBS, pH 7.4, 0.1% Triton X-100).
# Tube-Bound Chemiluminescence was Measured by Using the LB 953
molecule,measurement,setting,value
"NT-H: mouse monoclonal antibody raised against human ADM region 1-21 (SEQ ID: 15) (antibody, V domains shown) VH: QVQLQQSGAELMKPGASVKISCKATGYTFSRYWIEWVKQRPGHGLEWIGEILPGSGSTNYNEKFKGKATITADTSSNTAYMQLSSLTSEDSAVYYCTEGYEYDGFDYWGQGTTLTVSS VL: DVLLSQTPLSLPVSLGDQATISCRSSQSIVYSNGNTYLEWYLQKPGQSPKLLIYRVSNRFSGVPDRFSGSGSGTDFTLKISRVEAEDLGVYYCFQGSHIPYTFGGGTKLEIK",Maximal inhibition of ADM bioactivity (ADM-Bioassay) (%),[1],38%
same,Effect on the hADM immunoassay (dose/signal curve),hADM,did not affect
